T1: human ASIC1/ASIC3 channels (co-expressed human ASIC1a and human ASIC3) (human, UniProt Q9UHC3 1-531)
T1 construct: whole, on cells; 3T3 cells co-expressing both subunits; also called 3T3/hASIC1/3; 3T3-hASIC1/ASIC3
T1 sequence 1: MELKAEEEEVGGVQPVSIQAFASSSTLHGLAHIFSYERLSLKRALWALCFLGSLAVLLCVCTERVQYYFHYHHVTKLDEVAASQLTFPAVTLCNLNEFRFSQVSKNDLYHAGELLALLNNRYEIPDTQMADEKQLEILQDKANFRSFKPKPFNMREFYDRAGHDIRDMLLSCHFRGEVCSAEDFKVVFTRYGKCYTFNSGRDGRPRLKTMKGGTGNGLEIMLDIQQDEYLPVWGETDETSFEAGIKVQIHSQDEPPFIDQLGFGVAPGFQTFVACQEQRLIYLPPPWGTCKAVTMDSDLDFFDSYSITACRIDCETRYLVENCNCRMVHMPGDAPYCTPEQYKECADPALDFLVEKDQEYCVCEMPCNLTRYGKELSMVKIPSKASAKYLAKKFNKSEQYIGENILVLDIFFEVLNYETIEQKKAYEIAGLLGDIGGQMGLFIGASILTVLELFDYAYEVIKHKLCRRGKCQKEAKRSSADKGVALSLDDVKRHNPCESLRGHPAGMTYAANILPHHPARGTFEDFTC
T1 sequence 2: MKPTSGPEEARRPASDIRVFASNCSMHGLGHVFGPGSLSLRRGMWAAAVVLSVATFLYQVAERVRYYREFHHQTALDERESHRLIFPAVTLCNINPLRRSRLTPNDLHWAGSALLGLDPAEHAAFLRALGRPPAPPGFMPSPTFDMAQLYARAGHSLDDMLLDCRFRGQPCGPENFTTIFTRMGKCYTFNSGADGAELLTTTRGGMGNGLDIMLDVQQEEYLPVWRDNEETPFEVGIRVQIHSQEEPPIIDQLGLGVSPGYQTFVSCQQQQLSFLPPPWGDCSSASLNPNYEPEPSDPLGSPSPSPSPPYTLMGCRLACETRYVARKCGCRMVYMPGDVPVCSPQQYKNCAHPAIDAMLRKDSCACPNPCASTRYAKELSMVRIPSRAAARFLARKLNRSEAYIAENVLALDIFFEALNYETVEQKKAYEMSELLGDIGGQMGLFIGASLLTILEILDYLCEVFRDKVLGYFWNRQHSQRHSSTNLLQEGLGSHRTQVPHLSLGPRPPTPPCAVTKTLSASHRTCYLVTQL


Molecular target: T1, human ASIC1/ASIC3 channels …
Assay: FACS, 3T3/hASIC1/3 cells, 10 nM antibody
From the text: For these experiments, four cell lines were constructed: (a) a mouse fibroblast 3T3 cell line stably transfected to overexpress full length human ASIC3 (3T3/hASIC3; amino acids 1-531 of NCBI accession number NP_{—}004760.1), (b) a 3T3 cell line stably transfected to co-express full length human ASIC1a and human ASIC3 (3T3/hASIC1/3; amino acids 1-528 of NCBI accession number NP_{—}001086.2 and amino acids 1-531 of NCBI accession number NP_{—}004760.1), (c) […] a stably transfected 3T3 cell line expressing the full-length mouse ASIC3 channel (3T3/mASIC3; amino acids 1-530 of NCBI accession number NP_{—}892045.2), and (d) a 3T3 cell line stably transfected to co-express full length mouse ASIC1a and mouse ASIC3 (3T3/mASIC1/3; amino acids 1-526 of NCBI accession number NP_{—}033727 and amino acids 1-530 of NCBI accession number NP_{—}892045.2). Antibody binding was determined using flow cytometry (FACS).
To perform the FACS binding experiments, adherent cells were collected with cold Millipore Accutase 3-5 minutes, spun and resuspended in ice-cold FACS buffer (PBS, 2% HI-FBS and 0.09% Na-azide). Anti-ASIC1 antibody at final concentrations of 10 nM was added for 20-30 minutes on ice. Cells were washed with 900 μL ice-cold FACS buffer, spun, and resuspended in 100 μL ice-cold FACS buffer. A secondary antibody which recognizes human Fc (Jackson Immuno Research, #109-136-098) and is conjugated to allophycocyanin, was then added to the cell mixture at a final concentration of 2.5 ug/mL. After incubating for 20 minutes on ice, the cells were washed and resuspended in FACS buffer, then sorted and analyzed on a flow cytometer (FACSCanto II, BD Biosciences, San Jose, Calif.) to determine relative binding by the candidate antibodies to the tested cell lines. Histograms of cells stained with anti-ASIC1 antibodies were compared with those of cells stained with secondary antibody alone. Percentage of ASIC1 signal over secondary antibody alone was calculated using FlowJo software (Tree Star, Ashland, Oreg.).

| binding result | Binder |
| --- | --- |
| binds | H3M7102N (antibody, V domains shown, Chimeric: human variable, mouse constant domains; H3M prefix marks the Fc, isotype not spelled out) VH: EVQLLASGGGLVQPGGSLRLSCAASGFTFSSFAMSWVRQAPGKGLEWVSGISGSGGSTYYADSVKGRFTISRDNSKNTLYLQMNSLRAEDTAAYYCAKEAYKWQPWGQGIRVTVSS VL: DIQMTQSPSTLSASVGDRVSITCRASQSISSWLAWYQQKPGKAPKLLIYKASNLDSGVPSRFSGSGSGTDFTLTISSLQPDDFATYYCQQYNSYSYTFGQGTKLEIK |
| binds | H3M6726N (antibody, V domains shown, Chimeric: human variable, mouse constant domains; H3M prefix marks the Fc, isotype not spelled out) VH: EVQLLESGGVLVQPGGSLRLSCAASGFNFNNYDMSWVRQAPGKGLEWVSVISASGRNTYYADSVKGRFTISRDNSKISLYLQMNSLRPEDTAVYYCAKDHLVHYYYGMDVWGQGTTVTVSS VL: DIMMTQSPLSLSVTPGEPASISCRSSQSLLHSNGYNYLDWYLQKSGQSPHLLIYLGSNRASGVPDRFSGSGSGTDFTLKISRVEAEDGGVYYCMQALQTPRTFGQGTKVEIK |

Source: patent US20140056907A1 (Regeneron, published 2014)
